Ends that are not written are not given here.
Experiments:
FAM19A5 mutant M2 = biological target: T1, FAM19A5 mutant M2 (human); assay: ELISA on phage-expressed FAM19A5 mutants M1-M8
T1 chain: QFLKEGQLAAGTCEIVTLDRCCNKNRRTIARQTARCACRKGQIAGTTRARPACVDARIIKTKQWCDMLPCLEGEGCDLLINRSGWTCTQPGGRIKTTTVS

F2-01-BSA (#1) = biological target: T2, F2-01-BSA (#1) (human, conjugated to BSA); assay: ELISA, plate-coated F2 mutant peptides (BSA-conjugated)
T2 construct: already contained in the entry; also called mutant F2 peptide fragment #1
T2 peptide: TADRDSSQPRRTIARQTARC

F2-02-BSA (#2) = biological target: T3, F2-02-BSA (#2) (human, conjugated to BSA); assay: as above
T3 construct: already contained in the entry; also called mutant F2 peptide fragment #2
T3 peptide: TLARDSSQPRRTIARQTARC

F2-04-BSA (#4) = biological target: T4, F2-04-BSA (#4) (human, conjugated to BSA); assay: as above
T4 construct: already contained in the entry; also called mutant F2 peptide fragment #4
T4 peptide: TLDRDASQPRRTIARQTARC

F2-05-BSA (#5) = biological target: T5, F2-05-BSA (#5) (human, conjugated to BSA); assay: as above
T5 construct: already contained in the entry; also called mutant F2 peptide fragment #5
T5 peptide: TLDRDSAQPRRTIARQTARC

F2-06-BSA (#6) = biological target: T6, F2-06-BSA (#6) (human, conjugated to BSA); assay: as above
T6 construct: already contained in the entry; also called mutant F2 peptide fragment #6
T6 peptide: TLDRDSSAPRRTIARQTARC

F2-07-BSA (#7) = biological target: T7, F2-07-BSA (#7) (human, conjugated to BSA); assay: as above
T7 construct: already contained in the entry; also called mutant F2 peptide fragment #7
T7 peptide: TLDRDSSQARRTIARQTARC

F2-08-BSA (#8) = biological target: T8, F2-08-BSA (#8) (human, conjugated to BSA); assay: as above
T8 construct: already contained in the entry; also called mutant F2 peptide fragment #8
T8 peptide: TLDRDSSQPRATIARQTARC

F2-09-BSA (#9) = biological target: T9, F2-09-BSA (#9) (human, conjugated to BSA); assay: as above
T9 construct: already contained in the entry; also called mutant F2 peptide fragment #9
T9 peptide: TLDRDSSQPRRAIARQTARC

F2-10-BSA (#10) = biological target: T10, F2-10-BSA (#10) (human, conjugated to BSA); assay: as above
T10 construct: already contained in the entry; also called mutant F2 peptide fragment #10
T10 peptide: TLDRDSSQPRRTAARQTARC

F2-12-BSA (#12) = biological target: T11, F2-12-BSA (#12) (human, conjugated to BSA); assay: as above
T11 construct: already contained in the entry; also called mutant F2 peptide fragment #12
T11 peptide: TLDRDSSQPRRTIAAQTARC

F2-13-BSA (#13) = biological target: T12, F2-13-BSA (#13) (human, conjugated to BSA); assay: as above
T12 construct: already contained in the entry; also called mutant F2 peptide fragment #13
T12 peptide: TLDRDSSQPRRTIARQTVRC

[1] = biological target: T13, FAM19A5 epitope fragment F2, BSA-conjugated (human, conjugated to BSA); assay: ELISA, plate-coated BSA-conjugated FAM19A5 fragments F1-F6 (data not shown)
T13 peptide: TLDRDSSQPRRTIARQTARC
Description: Binding of the different anti-FAM19A5 antibodies to the BSA-conjugated peptide fragments F1-F6 was determined by Western blot analysis or ELISA assay. For the Western blot analysis, BSA-conjugated FAM19A5 fragments F1-F6 were separated by SDS polyacrylamide gel electrophoresis and transferred to a nitrocellulose membrane by the standard procedure. The membrane was incubated with the anti-FAM19A5 antibody (e.g., 1-65, […], 1-65-scFv-rabbit Fc-SSS), and the antigen-antibody complexes were detected with the appropriate secondary antibody conjugated with horse-radish peroxidase (anti-rabbit IgG (Fc specific)-HRP, 1:4000 dilution). For the ELISA assay, the following protocol was used. FAM19A5 fragment F1-F6 (diluted to 1 μg/mL in 50 mM carbonate buffer (Biosesang) or to 20 μg/mL for high concentration analysis) were used to coat the wells of 96-well immuno plates (Thermo Scientific) (100 μL/well) overnight at 4° C. and then subsequently washed twice in 1×PBS. The plates were then blocked with the blocking buffer (100 μL/well) for 1 hour at room temperature. […] The absorption value of each of the wells was detected at 492 nm using a 96-well microplate reader (Molecular Device).
(§1) As shown in FIGS. 19 and 20A, the anti-FAM19A5 antibody 1-65 bound strongly to fragment F5 as measured by both Western Blot and ELISA assay, respectively.

FAM19A5 mutant M1 = biological target: T14, FAM19A5 mutant M1 (human); assay: ELISA on phage-expressed FAM19A5 mutants M1-M8
T14 chain: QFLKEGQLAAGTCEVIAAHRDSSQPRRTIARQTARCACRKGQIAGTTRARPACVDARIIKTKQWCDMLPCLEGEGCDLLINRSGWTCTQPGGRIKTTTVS

FAM19A5 mutant M3 = biological target: T15, FAM19A5 mutant M3 (human); assay: ELISA on phage-expressed FAM19A5 mutants M1-M8
T15 chain: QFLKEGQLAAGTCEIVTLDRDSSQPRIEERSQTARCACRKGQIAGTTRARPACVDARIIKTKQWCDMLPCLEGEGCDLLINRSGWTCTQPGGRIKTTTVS

FAM19A5 mutant M4 = biological target: T16, FAM19A5 mutant M4 (human); assay: ELISA on phage-expressed FAM19A5 mutants M1-M8
T16 chain: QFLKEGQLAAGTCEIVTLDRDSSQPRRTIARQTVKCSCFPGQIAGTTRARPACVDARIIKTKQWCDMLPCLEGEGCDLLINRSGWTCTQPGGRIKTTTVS

FAM19A5 mutant M6 = biological target: T17, FAM19A5 mutant M6 (human); assay: ELISA on phage-expressed FAM19A5 mutants M1-M8
T17 chain: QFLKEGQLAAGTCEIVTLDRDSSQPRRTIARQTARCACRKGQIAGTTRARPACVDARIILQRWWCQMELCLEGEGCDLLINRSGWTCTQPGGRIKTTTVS

FAM19A5 mutant M7 = biological target: T18, FAM19A5 mutant M7 (human); assay: ELISA on phage-expressed FAM19A5 mutants M1-M8
T18 chain: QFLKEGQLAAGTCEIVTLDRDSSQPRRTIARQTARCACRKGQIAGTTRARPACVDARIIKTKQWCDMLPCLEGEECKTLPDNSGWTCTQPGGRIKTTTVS

FAM19A5 mutant M8 = biological target: T19, FAM19A5 mutant M8 (human); assay: ELISA on phage-expressed FAM19A5 mutants M1-M8
T19 chain: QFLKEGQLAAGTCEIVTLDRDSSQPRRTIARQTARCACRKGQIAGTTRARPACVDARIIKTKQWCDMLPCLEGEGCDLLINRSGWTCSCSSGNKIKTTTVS

[2] = biological target: T20, FAM19A5 epitope fragment F1, BSA-conjugated (human, also: conjugated to BSA); assay: ELISA, plate-coated BSA-conjugated FAM19A5 fragments F1-F6
T20 construct: which number belongs to which fragment is not spelled out
T20 peptide: QLAAGTCEIVTLDR
Description: (§2) Binding of the different anti-FAM19A5 antibodies to the BSA-conjugated peptide fragments F1-F6 was determined by Western blot analysis or ELISA assay. For the Western blot analysis, BSA-conjugated FAM19A5 fragments F1-F6 were separated by SDS polyacrylamide gel electrophoresis and transferred to a nitrocellulose membrane by the standard procedure. The membrane was incubated with the anti-FAM19A5 antibody (e.g., 1-65, […], 1-65-scFv-rabbit Fc-SSS), and the antigen-antibody complexes were detected with the appropriate secondary antibody conjugated with horse-radish peroxidase (anti-rabbit IgG (Fc specific)-HRP, 1:4000 dilution). For the ELISA assay, the following protocol was used. FAM19A5 fragment F1-F6 (diluted to 1 μg/mL in 50 mM carbonate buffer (Biosesang) or to 20 μg/mL for high concentration analysis) were used to coat the wells of 96-well immuno plates (Thermo Scientific) (100 μL/well) overnight at 4° C. and then subsequently washed twice in 1×PBS. The plates were then blocked with the blocking buffer (100 μL/well) for 1 hour at room temperature. During the 1-hour incubation, the relavant anti-FAM19A5 antibodies were diluted to 1 μg/mL (or 20 μg/mL for high concentration analysis) in the diluent buffer. Once the plates were washed (2× using 1×PBS), the diluted anti-FAM19A5 antibodies were added to the appropriate wells, and the plates were incubated at room temperature for 1 hour. The plates were subsequently washed for a total of five times using the washing buffer. Next, the ODP substrate (prepared by dissolving one ODP tablet (O-phenylenediamine Dihydrochloride, Thermo) into 9 mL of sterilized deionized water and 1 mL of 10× stable Peroxide Stable buffer (Theromo)) was added to each of the wells, and the color change reaction was allowed to occur for 10 minutes. This reaction was stopped by adding 100 μL of 2N H2SO4 (Daejung) to the wells. The absorption value of each of the wells was detected at 492 nm using a 96-well microplate reader (Molecular Device).
as §1

[3] = biological target: T13, FAM19A5 epitope fragment F2, …; assay: as above
Description: as §2, §1

[4] = biological target: T21, FAM19A5 epitope fragment F3, BSA-conjugated (human, conjugated to BSA); assay: as above
T21 peptide: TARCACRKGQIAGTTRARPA
Description: as §2, §1

[5] = biological target: T22, FAM19A5 epitope fragment F4, BSA-conjugated (human, conjugated to BSA); assay: as above
T22 peptide: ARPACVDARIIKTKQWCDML
Description: as §2, §1

[6] = biological target: T23, FAM19A5 epitope fragment F5, BSA-conjugated (human, conjugated to BSA); assay: as above
T23 peptide: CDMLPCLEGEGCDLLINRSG
Description: as §2, §1

[7] = biological target: T24, FAM19A5 epitope fragment F6, BSA-conjugated (human, conjugated to BSA); assay: as above
T24 peptide: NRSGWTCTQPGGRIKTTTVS
Description: as §2, §1

[8] = biological target: T25, Human FAM19A5 protein (Wild Type) (human, UniProt Q7Z5A7 44-132); assay: value given in the HDX-MS sample preparation; method of its determination not stated
T25 construct: also called FAM19A5 antigen; TAFA5

B1: Anti-FAM19A5 antibody 1-28 (antibody, V domains shown)
VH: AVTLDESGGGLQTPGGALSLVCKASGFDFSDYGMGWVRQAPGKGLEWVAAIRSDGSNPSYGSAVKGRATISKDNGRSTVRLQLNNLRAEDTATYYCAKDGNGYCALDAYRSGGYSCGVYPGSIDAWGHGTEVIVSS
VL: ALTQPSSVSANLEGTVEITCSGSGYGYGWYQQKSPGSAPVTVIYQNDKRPSDIPSRFSGSKSGSTGTLTITGVQVEDEAVYYCGSEDSSTLAGIFGAGTTLTVL
**Q.** Does B1 bind (FAM19A5 mutant M2)?
**A.** no binding

**Q.** Does B1 bind (F2-01-BSA (#1))?
**A.** binds

**Q.** Does B1 bind (F2-02-BSA (#2))?
**A.** binds

**Q.** Does B1 bind (F2-04-BSA (#4))?
**A.** binds

**Q.** Does B1 bind (F2-05-BSA (#5))?
**A.** binds

**Q.** Does B1 bind (F2-06-BSA (#6))?
**A.** binds

**Q.** Does B1 bind (F2-07-BSA (#7))?
**A.** binds

**Q.** Does B1 bind (F2-08-BSA (#8))?
**A.** binds

**Q.** Does B1 bind (F2-09-BSA (#9))?
**A.** binds

**Q.** Does B1 bind (F2-10-BSA (#10))?
**A.** binds

**Q.** Does B1 bind (F2-12-BSA (#12))?
**A.** binds

**Q.** Does B1 bind (F2-13-BSA (#13))?
**A.** binds

**Q.** Does B1 bind [1]?
**A.** binds

B2: Anti-FAM19A5 antibody 2-13 (antibody, V domains shown)
VH: AVTLDESGGGLQTPGGALSLVCKASGFTFSSHGMFWVRQTPGKGLEYVAEITNDGSGTNYGSAVKGRATISRDNGQSTVRLQLNNLRAEDTGTYFCARSTYECPGGFSCWGDTGQIDAWGHGTEVIVSS
VL: ALTQPSSVSANPGETVKITCSGGSYSYGWFQQKSPGSALVTVIYWDDERPSDIPSRFSGALSGSTNTLTITGVQADDEAVYFCGTEDISGTAGVFGAGTTLTVL
notes: also called clone 2-13
**Q.** Does B2 bind (FAM19A5 mutant M1)?
**A.** binds

**Q.** Does B2 bind (FAM19A5 mutant M2)?
**A.** binds

**Q.** Does B2 bind (FAM19A5 mutant M3)?
**A.** binds

**Q.** Does B2 bind (FAM19A5 mutant M4)?
**A.** no binding

**Q.** Does B2 bind (FAM19A5 mutant M6)?
**A.** binds

**Q.** Does B2 bind (FAM19A5 mutant M7)?
**A.** binds

**Q.** Does B2 bind (FAM19A5 mutant M8)?
**A.** no binding

**Q.** Does B2 bind [2]?
**A.** no binding

**Q.** Does B2 bind [3]?
**A.** no binding

**Q.** Does B2 bind [4]?
**A.** no binding

**Q.** Does B2 bind [5]?
**A.** no binding

**Q.** Does B2 bind [6]?
**A.** no binding

**Q.** Does B2 bind [7]?
**A.** no binding

**Q.** What about the Kd [8] of the same binder?
**A.** 1 nM

— patent US20260265360A1 (NEURACLE SCIENCE, published 2026)
